Our source for the IC50 values is patent US20220236279A1 (published 2022).

This test concerns the target human atypical chemokine receptor 3 (ACKR3) (human, UniProt P25106 1-362). As to the kind of experiment: binding competition with CXCL12-AF647, flow cytometry.

No end group written: not given here.

By IC50 is commonly meant the concentration that gives 50% inhibition. A high value points to weaker potency in that assay.

human atypical chemokine receptor 3 (ACKR3), sequence (P25106 whole entry): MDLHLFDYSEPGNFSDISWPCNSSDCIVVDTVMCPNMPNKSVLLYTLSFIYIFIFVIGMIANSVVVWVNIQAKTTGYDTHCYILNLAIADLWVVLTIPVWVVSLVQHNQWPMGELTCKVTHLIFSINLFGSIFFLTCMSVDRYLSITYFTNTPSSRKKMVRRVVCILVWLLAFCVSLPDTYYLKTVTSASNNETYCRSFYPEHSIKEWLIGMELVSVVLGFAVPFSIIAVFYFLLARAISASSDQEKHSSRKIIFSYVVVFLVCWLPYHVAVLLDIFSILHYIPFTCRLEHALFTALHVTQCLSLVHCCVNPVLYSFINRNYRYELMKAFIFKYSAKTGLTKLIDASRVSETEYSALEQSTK

Molecule YGGFMRRVGRPEWWMDYQKRYG [BAM22] returned an IC50 of 32.7 nM. In other words, the double-digit nanomolar range. In the case of GGFLRRIRPKLK-NH2 [dynorphin 2-13 (SEQ ID NO: 20; NH2-substituted at C-terminus)] it was 20900 nM. In turn, GGFLRRIRPKLKWDNQ [dynorphin 2-17 (SEQ ID NO: 19)] showed an IC50 of 11100 nM. As to YGGFLRRQFKVVT [dynorphin B], the IC50 turned out to be 465 nM. The molecule FGGFTGARKSARK-NH2 (also: reduced peptide bond ψ(CH2-NH) between Phe1 and Gly2) [Phe1ψ(CH2-NH)-Gly2-Nociceptin-1-13 amide (SEQ ID NO: 13; NH2-substituted at C-terminus)] came in with an IC50 of more than 10000 nM. In the case of YGGFMRRV-NH2 [adrenorphin, YGGFMRRV (SEQ ID NO: 32; NH2-substituted at C-terminus)] it was 49 nM; in that of YGGFLRRIRPKLKWDNQ [dynorphin A], 82.7 nM. H-FGGFMRRK-NH2 [LIH383, octapeptide FGGFMRRK (SEQ ID NO: 3; NH2-substituted at C-terminus)]: the IC50 stood at 4 nM. Against the preceding molecule, the IC50 is about 21-fold lower.
